According to article doi:10.1101/2024.02.29.582781 (bioRxiv, 2024):

B1: glycerol-3-phosphate dehydrogenase Saci_1118, N-terminally His-tagged (enzyme, Sulfolobus acidocaldarius DSM 639, UniProt Q4J9Q8 1-428, looked up)
chain: MKQNSSVIVIGGGATGLFTALDLSLRGINVTLVERGDIASGTSGKFHGLLHSGARYAVNDPESAKECKQENEVLSKIAPEFVRDTGGVFVGITEDDVNYSQRFLSALNSLGITNKVMDVEELIRREPFINKKSKIAIWVPDKVVYGYDLLATVALTASLNGAKILTYNEVKRVLREGNSVRRVEVKDNISGETKILNGDIIVNTAGPWAFRVIEMAGLGEIPLLPTAGIMVVMKEKLNSMVINRLRPPSDGDIIVPYGDSSIIGTTATIIPDPDNFEISDEDINMLIEEGAYMIPRLKEVKPERAYASVRPLIKNAEDGRGATRDFMIIDHEKVDSLDGLISVIGGKFTTSRLAGEKVSDMVSEKLGIREKSKTATIKLMSELDEKLLEKKRVPKVLVKMIRERKGSLDEDRYSTAMYILLSLLARGE
B2: glycerol kinase Saci_1117 (enzyme, Sulfolobus acidocaldarius DSM 639, UniProt Q4J9R1 1-498, looked up)
chain: MSKYILAVDEGTTSARALVFDEDLNVISIAQTELTQYFPRPGYVEQNPEEIFEKQVSMIKKAVEKAKIEISQVSAIGIANQRETTIMWDSRSGRPVYNAVVWQDRRTSDITDWLKSNYLNLFKSKTGLIPDPYFSASKIKWILDNVPGVREKAERGEIKFGTVDTYLIWKLTNGKVHVTDYSNASRTMLFNIKKLEWDRDILEILEIPEAILPEVRSSSEVYGYAEPVGNIPISGDAGDQQAALFGQLGFSKGDVKCTYGTGSFILMNSGEEIYDSKDLLTTIAWKIGKDVKYALEGSIFTTGAAVQWVRDGLGLVSSSDEIESLASSVVDNGGVYFVPAFSGLGSPYWDPYARGLIIGISRGTSRGHIARAVLESIAYQVRDVIEVIKKDVGKEFVNVLKVDGGVSKNNLLMQFQADILGIRIVRPRVIETTSMGASMLAGLAVDYWSSLEELKSKWAVDREFIPSLQEDRRERLYKGWKEAVRRTIGWAREVETME
B3: glycerol-3-phosphate dehydrogenase Saci_2032, N-terminally His-tagged (enzyme, Sulfolobus acidocaldarius DSM 639, UniProt Q4J7A2 1-431, looked up)
chain: MEIKTSVLVIGGGANGLFTALDLALRGIDVTLVERRDIGSGTSGRFHGLLHSGARYAVTDPESAKECIQENNIISKIAPHAIRDTGGLFLGITKEDLEFLDKFLSSLKKLGIEHKIVDNNQVLQEEPYVNKDLKIAIWVPDKVVYGYDLLSSIAVTGSLNKARIMTYNEVTEFIRDGNSIKGVKVFDKITNQMNLIKSDIIINTSGPWAFKIITMAGLEEIPILPTAGIMAVFGKKVNNAVLNRLRPPSDGDIIVPYQDTSILGTTATIIEDPDNFTISDEDVKMLIKEGSQLVPELSKTRVIRTYASVRPLMRTSEDGRKASRDFTILDHEREDGVSGLISIIGGKFTTSRLVGEKVGDLVSEKLGVRAKSKTKETKLISPSEIDFEKYLEKIGISKIFLKSVMERRGSLDEERYKTVLYLLLSLIARGR
B4: glycerol kinase Saci_2033 (enzyme, Sulfolobus acidocaldarius DSM 639, UniProt Q4J7A3 1-497, looked up)
chain: MAEKYVIAIDEGTTSARAIVFDKELNILGIGQNEFTQYYPQPGYVEHSPEEIWQAQLLAINKALEKAKIDRNNILSIGITNQRETTVMWDTRTGKPIYNAIVWQDRRTAPITDYLKANYLRLIKDRTGLVPDPYFSASKIKWILDNIPNAREKAEKGEIKFGTIDTYLIWKLTNGKAHVTDYSNASRTMLFNIRKLEWDREILEILNIPEAILPDVKPSSEIYGYAEILNSSIPISGDAGDQQAALFGQIAFNQGDVKCTYGTGSFILLNTGSNLVSSNDLLTTIAWGVGKGITYALEGSIFITGAAVQWFRDGLRAIDVSDEIEPLAGSVPDNGGVYFVPAFTGLGAPYWDPYARGLIIGITRGTTKAHIARAILESMAYQTMDVLGIMQRDSGIKIDALKVDGGASKNDLLMQFQADILKMKVVRPKIMETTSMGVAMLAGLSVGYWNSMDELKQKWKIDQVFEPKMDDEYREKLYSGWKEAVRRALGWAKTIGG

Target: the molecule itself
Test: SEC

Row | Protein | stoichiometry N
1 | B1 | 2
2 | B2 | 2
3 | B3 | 2
4 | B4 | 2
